From paper PMC7054990

Target: ALIX BRO1 domain (human)
Assay: recruitment to supported lipid bilayers (time-lapse confocal fluorescence microscopy); supported bilayers DOPC:DOPE:PI:LBPA (4.99:2:1:2 mol) preincubated 40 min with 3.7 µM ALIX BRO1 domain or mutant, unbound protein removed, then 0.64 µM CHMP4B-488 for 25 min; ALIX buffer: 25 mM Hepes pH 7.4, 0.3 mM BAPTA, 0.3 mM NTA, 0.3 mM hydroxyethyl EDTA, 686 µM CaCl2 (20 µM free calcium)

Chain of ALIX BRO1 domain (human) (Q9WU78 1-359): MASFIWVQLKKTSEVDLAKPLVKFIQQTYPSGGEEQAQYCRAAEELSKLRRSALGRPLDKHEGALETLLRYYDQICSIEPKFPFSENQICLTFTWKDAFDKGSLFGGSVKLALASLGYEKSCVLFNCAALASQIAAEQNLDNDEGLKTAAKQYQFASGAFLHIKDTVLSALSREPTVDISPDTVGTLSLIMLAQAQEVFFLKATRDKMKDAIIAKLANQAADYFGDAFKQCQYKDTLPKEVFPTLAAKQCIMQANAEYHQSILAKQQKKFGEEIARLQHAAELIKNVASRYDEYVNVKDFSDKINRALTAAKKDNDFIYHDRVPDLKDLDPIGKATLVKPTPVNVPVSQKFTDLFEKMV

apparent t1/2 of recruitment: 5 min
B1: Alexa Fluor 488 CHMP4B (natural protein)
chain: MSVFGKLFGAGGGKAGKGGPTPQEAIQRLRDTEEMLSKKQEFLEKKIEQELTAAKKHGTKNKRAALQALKRKKRYEKQLAQIDGTLSTIEFQREALENANTNTEVLKNMGYAAKAMKAAHDNMDIDKVDELMQDIADQQELAEEISTAISKPVGFGEEFDEDELMAELEELEQEELDKNLLEISGPETVPLPNVPSIALPSKPAKKKEEEDDDMKELENWAGSM
modifications: Alexa Fluor 488 (labelled with Alexa Fluor 488 tetrafluorophenyl ester, 1:2 protein:dye)
